Assay results: US9731031B2, “Conjugate comprising oxyntomodulin and an immunoglobulin fragment, and use thereof” (Hanmi Science Co., Ltd., dated 2017)
Where no end group is shown, it is not given here. [ ]: non-standard residue; d: D form. The star is where a group is joined. Acetyl(2-(4-imidazolyl)) = O=C(Cc1c[nH]cn1)*; Aib = CC(C)(N)C(=O)O

B1: oxyntomodulin derivative of SEQ ID NO. 6 (peptide)
peptide: HGEGTFTSDLSRQMEEEAVRLFIEWAAHSQGTFTSDYSKYLD
modifications: not fully specified (residue 1, N-terminus); also: N-terminal CA (4-imidazoacetyl), whether it replaces His1 not given here
B2: oxyntomodulin derivative of SEQ ID NO. 17 (peptide)
peptide: HSQGTFTSDYSRYLDEEAVRLFIEWIRNTKRNRNNIA
modifications: not fully specified (residue 1, N-terminus); also: N-terminal CA (4-imidazoacetyl), whether it replaces His1 not given here
B3: oxyntomodulin derivative of SEQ ID NO. 11 (peptide)
peptide: HGEGTFTSDLSRQMEEEAVRLFIEWAAHSQGTFTSDYSRYLDK
modifications: not fully specified (residue 1, N-terminus); also: N-terminal CA (4-imidazoacetyl), whether it replaces His1 not given here

These binders were tested against human glucagon receptor (human, UniProt P47871) (assay: cell-based or functional assay).

| Binder | EC50 (nM), cAMP |
| --- | --- |
| HSQGTFTSDYSRYLDEEAVELFIEWLMNTK [oxyntomodulin derivative of SEQ ID NO. 13] | > 1000 nM |
| H[Aib]QGTFTSDYAKYLDEKRAKEFVQWLMNTC (also: ring marking not visible) [oxyntomodulin derivative of SEQ ID NO. 33] | 80.2 nM |
| [Acetyl(2-(4-imidazolyl))][Aib]QGTFTSDYSKYLDEKRAKEFVQWLMNTC (also: ring between residues marked, places not visible) [oxyntomodulin derivative of SEQ ID NO. 32] | 17.3 nM |
| H[Aib]QGTFTSDYSKYLDEKRAKEFVQWLMNT (also: ring between residues marked, places not visible) [oxyntomodulin derivative of SEQ ID NO. 28] | 0.3 nM |
| B1 | > 1000 nM |
| [Acetyl(2-(4-imidazolyl))]SQGTFTSDYSRYLDEEAVRLFIEWIRNGGPSSGAPPPSK (also: N-terminal CA (4-imidazoacetyl), whether it replaces His1 not given here) [oxyntomodulin derivative of SEQ ID NO. 18] | > 1000 nM |
| B2 | > 1000 nM |
| B3 | > 1000 nM |
| H[Aib]QGTFTSDYSKYLDEKRAKEFVCWLMNT (also: ring between residues marked, places not visible) [oxyntomodulin derivative of SEQ ID NO. 23] | 5.8 nM |
| Y[Aib]QGTFTSDYSKYLDEKRAKEFVQWLMNTC (also: ring marking not visible) [oxyntomodulin derivative of SEQ ID NO. 34] | 1 nM |
| [Acetyl(2-(4-imidazolyl))]SQGTFTSDLSRQLEEEAVRLFIEWLMNK (also: N-terminal CA (4-imidazoacetyl), whether it replaces His1 not given here) [oxyntomodulin derivative of SEQ ID NO. 8] | > 1000 nM |

What follows are binders tested against human GLP-1 receptor (human, UniProt P43220) (assay: cell-based or functional assay).

| Binder | EC50 (nM), cAMP |
| --- | --- |
| HSQGTFTSDYSRYLDEEAVELFIEWLMNTK [oxyntomodulin derivative of SEQ ID NO. 13] | > 1000 nM |
| H[Aib]QGTFTSDYAKYLDEKRAKEFVQWLMNTC (also: ring marking not visible) [oxyntomodulin derivative of SEQ ID NO. 33] | 2.2 nM |
| [Acetyl(2-(4-imidazolyl))][Aib]QGTFTSDYSKYLDEKRAKEFVQWLMNTC (also: ring between residues marked, places not visible) [oxyntomodulin derivative of SEQ ID NO. 32] | 14.2 nM |
| [Acetyl(2-(4-imidazolyl))]SQGTFTSDYSKYLDERRAQDFVAWLKNTGPSSGAPPPS (also: N-terminal CA (4-imidazoacetyl), whether it replaces His1 not given here) [oxyntomodulin derivative of SEQ ID NO. 3] | > 1000 nM |
| H[Aib]QGTFTSDYSKYLDEKRAKEFVQWLMNTC (also: ring between residues marked, places not visible) [oxyntomodulin derivative of SEQ ID NO. 25] | 1.9 nM |
| H[Aib]QGTFTSDYSKYLDEKRAKEFVQWLMNTC (also: ring between residues marked, places not visible) [oxyntomodulin derivative of SEQ ID NO. 24] | 1.43 nM |
| B3 | > 1000 nM |
| H[Aib]QGTFTSDYSKYLDEKRAKEFVCWLMNT (also: ring between residues marked, places not visible) [oxyntomodulin derivative of SEQ ID NO. 23] | 2.46 nM |
| Y[Aib]QGTFTSDYSKYLDEKRAKEFVQWLMNTC (also: ring marking not visible) [oxyntomodulin derivative of SEQ ID NO. 34] | 12.5 nM |
